These results are taken from patent US20090280528.

The subject of data set [1] is T1, Sbo13I restriction endonuclease (Shigella boydii 13).
T1 sequence: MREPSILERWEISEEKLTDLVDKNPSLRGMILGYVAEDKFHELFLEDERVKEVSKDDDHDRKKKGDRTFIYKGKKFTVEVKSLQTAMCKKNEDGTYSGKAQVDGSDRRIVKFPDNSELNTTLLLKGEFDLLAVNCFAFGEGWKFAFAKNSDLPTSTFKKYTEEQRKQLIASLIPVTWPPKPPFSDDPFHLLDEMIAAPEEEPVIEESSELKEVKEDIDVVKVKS
Kind of data set: cleavage_in_vitro. The settings on record: 37 C, 10 mM Mg, 55 mM NaCl, pH 7.5; approximate value; lambda DNA assay.

Data set [2] deals with T2, NruI restriction endonuclease (recombinant) (Nocardia rubra).
T2 sequence: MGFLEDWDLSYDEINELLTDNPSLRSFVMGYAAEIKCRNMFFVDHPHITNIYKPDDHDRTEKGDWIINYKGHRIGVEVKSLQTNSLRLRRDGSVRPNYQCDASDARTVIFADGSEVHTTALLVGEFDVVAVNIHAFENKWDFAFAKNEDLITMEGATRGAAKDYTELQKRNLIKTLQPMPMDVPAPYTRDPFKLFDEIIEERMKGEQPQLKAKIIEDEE
Briefly: cleavage_in_vitro. The settings on record: 37 C, 30 min, NEB buffer 2; complete digestion pattern; approximate value.

Consider Lambda phage DNA, for which, in data set [1], the activity (units per gram wet cell paste) was determined as 100000. For the same substance, the activity (units per gram wet cells) in data set [2] turned out to be 6.5e+06.
